Measurements as given in the supplement of paper PMC10724198.

Key:
[1] = test system: Saccharomyces cerevisiae; assay: protein stability index of tFT-peptide fusion in wild type (PSI (0-1 scale)); higher = more stable (slower turnover); settings: genetic background: wild type
[2] = test system: Saccharomyces cerevisiae; assay: protein stability index of tFT-peptide fusion in deletion strain of DOA10 (PSI (0-1 scale)); higher = more stable (slower turnover)
Protocol: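 MPS profiling in S. cerevisiae of two library types built from selected 12-aa C-degron peptides (IN1, IN2, LN1, LN3, VN2, R1-R5, W1-W3, Atg1 and Rpa12 C-termini): saturation mutagenesis libraries and C-terminal +1 capping libraries (13 aa). Each peptide is fused to the C-terminus of a sfGFP-mCherry timer, after a GGGS linker. Cells are FACS-sorted into 8 mCherry/sfGFP bins and sequenced. PSI runs from 0 (unstable) to 1 (stable), measured once in wild type and in the das1Δ or doa10Δ background.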
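Wherever protein stability index of tFT-peptide fusion in deletion strain of DOA10 is given: PSI per variant is the weighted mean of its sequencing read distribution over the sorted stability bins, counting only variants with over 10 reads summed across bins.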
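Wherever protein stability index of tFT-peptide fusion in wild type is given: PSI derived as read-weighted mean over the 8 sorting bins, only variants exceeding 10 total reads kept, mCherry placed adjacent to the peptide and sfGFP distal.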

| Sequence | protein stability index [1] | protein stability index [2] |
| --- | --- | --- |
| AITLPMCMLLLR | 0.133 | 0.651 |
| AITLPMCPDLLR | 0.669 | 0.677 |
| AITLPMCPLLDR | 0.655 | 0.7 |
| AITLPMCPLLFR | 0.27 | 0.669 |
| AITLPMCPLLLA | 0.269 | 0.313 |
| AITLPMCPLLLE | 0.618 | 0.652 |
| AITLPMCPLLLG | 0.509 | 0.544 |
| AITLPMCPLLLRP | 0.281 | 0.636 |
| AITLPMCPLLLRW | 0.0872 | 0.621 |
| AITLPMCPLNLR | 0.645 | 0.673 |
| AITLPMCPLSLR | 0.596 | 0.665 |
| AITLPMCPLYLR | 0.135 | 0.675 |
| AITLPMCPVLLR | 0.322 | 0.623 |
| AITLPMCPWLLR | 0.652 | 0.667 |
| AITLPMMPLLLR | 0.187 | 0.639 |
| AITLPMPPLLLR | 0.257 | 0.682 |
| AITLPMSPLLLR | 0.276 | 0.673 |
| ALVSLPILLFFR | 0.0758 | 0.653 |
| ARTLPMCPLLLR | 0.311 | 0.669 |
| ASLRVLLPLYFR | 0.285 | 0.666 |
| CDVSLPILLFFR | 0.0512 | 0.648 |
| CFVSLPILLFFR | 0.0595 | 0.579 |
| CLKSLPILLFFR | 0.083 | 0.618 |
| CLLSLPILLFFR | 0.0527 | 0.571 |

| Sequence | protein stability index [1] | protein stability index [2] |
| --- | --- | --- |
| CLVALPILLFFR | 0.0608 | 0.512 |
| CLVGLPILLFFR | 0.0666 | 0.589 |
| CLVPLPILLFFR | 0.0703 | 0.57 |
| CLVSLAILLFFR | 0.248 | 0.351 |
| CLVSLEILLFFR | 0.211 | 0.262 |
| CLVSLIILLFFR | 0.298 | 0.363 |
| CLVSLPILLEFR | 0.518 | 0.638 |
| CLVSLPILLFFE | 0.454 | 0.57 |
| CLVSLPILLFFG | 0.447 | 0.52 |
| CLVSLPILLFFH | 0.204 | 0.474 |
| CLVSLPILLFFI | 0.197 | 0.436 |
| CLVSLPILLFFRT | 0.0656 | 0.516 |
| CLVSLPILLFFRY | 0.0612 | 0.483 |
| CLVSLPILLFGR | 0.492 | 0.523 |
| CLVSLPILLFTR | 0.314 | 0.477 |
| CLVSLPILLTFR | 0.0802 | 0.627 |
| CLVSLPINLFFR | 0.0948 | 0.682 |
| CLVSLPIQLFFR | 0.0792 | 0.658 |
| CLVSLPITLFFR | 0.104 | 0.65 |
| CLVSLRILLFFR | 0.152 | 0.282 |
| CLVSTPILLFFR | 0.132 | 0.623 |
| CLVWLPILLFFR | 0.0521 | 0.359 |
| CRVSLPILLFFR | 0.0571 | 0.62 |
| CSVSLPILLFFR | 0.0485 | 0.617 |

| Sequence | protein stability index [1] | protein stability index [2] |
| --- | --- | --- |
| CVVSLPILLFFR | 0.0506 | 0.589 |
| EVTRLDAIYFRI | 0.435 | 0.701 |
| FITLPMCPLLLR | 0.333 | 0.61 |
| FLVSLPILLFFR | 0.0831 | 0.539 |
| GCYMCSVGCWFR | 0.326 | 0.667 |
| GIYMCSVGCWFR | 0.256 | 0.611 |
| GLYACSVGCWFR | 0.386 | 0.678 |
| GLYDCSVGCWFR | 0.56 | 0.716 |
| GLYKCSVGCWFR | 0.453 | 0.671 |
| GLYMCEVGCWFR | 0.485 | 0.642 |
| GLYMCGVGCWFR | 0.335 | 0.682 |
| GLYMCQVGCWFR | 0.308 | 0.641 |
| GLYMCSVGCGFR | 0.628 | 0.655 |
| GLYMCSVGCWCR | 0.334 | 0.45 |
| GLYMCSVGCWFD | 0.471 | 0.518 |
| GLYMCSVGCWFI | 0.44 | 0.585 |
| GLYMCSVGCWFM | 0.543 | 0.586 |
| GLYMCSVPCWFR | 0.646 | 0.682 |
| GLYMCSVWCWFR | 0.305 | 0.399 |
| GLYMPSVGCWFR | 0.196 | 0.683 |
| GLYMRSVGCWFR | 0.252 | 0.688 |
| GLYMSSVGCWFR | 0.299 | 0.688 |
| GLYMYSVGCWFR | 0.238 | 0.605 |
| GLYPCSVGCWFR | 0.394 | 0.678 |

| Sequence | protein stability index [1] | protein stability index [2] |
| --- | --- | --- |
| GQYMCSVGCWFR | 0.363 | 0.673 |
| GWYMCSVGCWFR | 0.168 | 0.601 |
| HLVSLPILLFFR | 0.108 | 0.618 |
| HSLRVLLPLYFR | 0.309 | 0.669 |
| KLYMCSVGCWFR | 0.349 | 0.654 |
| KVTRLDAIYFRI | 0.251 | 0.67 |
| LLYMCSVGCWFR | 0.348 | 0.571 |
| LSLRVLLPLYFR | 0.311 | 0.616 |
| MLVSLPILLFFR | 0.089 | 0.565 |
| NITLPMCPLLLR | 0.359 | 0.664 |
| RDLRVLLPLYFR | 0.295 | 0.675 |
| RFLRVLLPLYFR | 0.381 | 0.666 |
| RPTRLDAIYFRI | 0.504 | 0.666 |
| RSERVLLPLYFR | 0.365 | 0.674 |
| RSGRVLLPLYFR | 0.372 | 0.665 |
| RSLPVLLPLYFR | 0.186 | 0.672 |
| RSLRCLLPLYFR | 0.408 | 0.681 |
| RSLRKLLPLYFR | 0.474 | 0.67 |
| RSLRVLDPLYFR | 0.556 | 0.721 |
| RSLRVLLELYFR | 0.557 | 0.593 |
| RSLRVLLPLWFR | 0.459 | 0.67 |
| RSLRVLLPLYDR | 0.652 | 0.708 |
| RSLRVLLPLYFRN | 0.204 | 0.5 |
| RSLRVLLPLYGR | 0.595 | 0.642 |

| Sequence | protein stability index [1] | protein stability index [2] |
| --- | --- | --- |
| RSLRVLLPLYVR | 0.202 | 0.35 |
| RSLRVLLWLYFR | 0.166 | 0.524 |
| RSLRVLLYLYFR | 0.235 | 0.479 |
| RSLRVLSPLYFR | 0.308 | 0.691 |
| RSLRVRLPLYFR | 0.187 | 0.675 |
| RSNRVLLPLYFR | 0.334 | 0.701 |
| RSQRVLLPLYFR | 0.308 | 0.705 |
| RSVRVLLPLYFR | 0.238 | 0.661 |
| RVKRLDAIYFRI | 0.392 | 0.64 |
| RVTELDAIYFRI | 0.633 | 0.64 |
| RVTRHDAIYFRI | 0.517 | 0.689 |
| RVTRLDAIAFRI | 0.673 | 0.708 |
| RVTRLDAICFRI | 0.656 | 0.713 |
| RVTRLDAIYERI | 0.67 | 0.708 |
| RVTRLDAIYFHI | 0.491 | 0.527 |
| RVTRLDAIYFNI | 0.572 | 0.703 |
| RVTRLDAIYFRE | 0.676 | 0.725 |
| RVTRLDAIYFRIR | 0.589 | 0.717 |
| RVTRLDAIYFRN | 0.6 | 0.676 |
| RVTRLDAIYFRV | 0.342 | 0.63 |
| RVTRLDAIYFTI | 0.548 | 0.64 |
